Positions count from the first letter of the chain named. Ends that are not written are not given here. * marks the point of attachment. FITC = O=C1OC2(c3ccc(O)cc3Oc3cc(O)ccc32)c2ccc(NC(=S)*)cc21
Key:
Test in all cases: fluorescence polarization; 1 nM FITC-MLL1 4-43(C-A) probe titrated with StrepII-Avi-TEV-Menin; one site total fit; mean±S.D., N=3
[1] = target: T1, StrepII-Avi-TEV-Menin (wild-type human Menin, recombinant, E. coli) (human, UniProt O00255 1-610)
T1 construct: also called WT Menin; WT-Menin
T1 sequence: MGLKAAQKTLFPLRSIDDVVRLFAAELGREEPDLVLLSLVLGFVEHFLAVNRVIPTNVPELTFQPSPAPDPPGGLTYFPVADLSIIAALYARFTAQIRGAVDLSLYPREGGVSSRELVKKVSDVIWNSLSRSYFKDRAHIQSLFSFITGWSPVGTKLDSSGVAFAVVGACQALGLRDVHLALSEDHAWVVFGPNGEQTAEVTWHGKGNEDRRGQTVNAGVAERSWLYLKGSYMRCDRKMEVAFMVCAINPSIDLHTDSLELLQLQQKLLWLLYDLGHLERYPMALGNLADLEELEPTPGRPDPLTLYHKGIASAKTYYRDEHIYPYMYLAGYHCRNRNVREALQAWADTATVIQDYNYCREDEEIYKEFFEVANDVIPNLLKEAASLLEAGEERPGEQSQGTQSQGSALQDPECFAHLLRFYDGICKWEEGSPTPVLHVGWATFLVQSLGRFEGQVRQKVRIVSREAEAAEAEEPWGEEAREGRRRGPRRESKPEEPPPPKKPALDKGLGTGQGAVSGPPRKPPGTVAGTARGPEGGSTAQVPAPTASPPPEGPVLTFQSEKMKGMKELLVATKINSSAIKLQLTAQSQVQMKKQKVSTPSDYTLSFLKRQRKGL
Method: (§1) To derive the FITC-MLL1₄₋₄₃(C-A) peptide Kd. FITC-conjugated MLL1₄₋₄₃(C-A) peptide probe at final concentration of 1 nM was mixed with increasing concentration of purified StrepII-Avi-TEV-Menin (5 μM final top concentration, 2-fold, 23-point dilution and a buffer control) in an assay buffer (50 mM Tris pH 7.5, 200 mM NaCl, 0.1% Pluronic F-68 solution (Sigma)) in 384-well microplates at 15 μL assay volume (Corning, 4514) and incubated for 30 min at room temperature (RT). For all assays change in fluorescence polarization was monitored using a PHERAstar FS microplate reader (BMG Labtech). […] In competitive titration experiments Menin proteins (1 nM WT, 1 nM M327I or 3 nM for T349M) and 1 nM FITC-conjugated MLL1₄₋₄₃(C-A) peptide probe were incubated in an assay buffer for 30 min. SNDX-5613 was then dispensed to 384-well microplate (Corning, 4514) containing 15 μL of the assay mix using D300e Digital Dispenser (HP) and normalized to 1% DMSO followed by 90 min incubation. The fluorescence polarization was monitored by PHERAstar FS microplate reader (BMG Labtech). The MLL1₄₋₄₃(WT) and MLL1₄₋₄₃(C-A) peptide titrations were performed by addition of 7.5 μL of 2-fold 23-point serial dilution into 7.5 μL of assay mix with the final concentrations of 1 nM FITC-conjugated MLL₄₋₄₃ peptide probe, 1 nM WT Menin or 1 nM Menin M327I or 3 nM Menin T349M in assay buffer. The fluorescence polarization was monitored by PHERAstar FS microplate reader (BMG Labtech). For analysis of the competitive titration experiments the last 10 cycles of the data were averaged to obtain technical replicates. Data from three independent replicates (n=3) was plotted and IC₅₀ values estimated using variable slope equation in GraphPad Prism 9. The calculation of Kᵢ values was performed using Kᵢ calculator available at websites.umich.edu/˜shaomengwanglab/software/calc_ki/index.html²³.

[2] = target: T2, StrepII-Avi-TEV-Menin M327I (recombinant mutant human Menin) (human, UniProt O00255 1-610)
T2 construct: The mutant plasmid was made from the wild-type StrepII-Avi-TEV Menin construct; also called M327I-mutant Menin; M327I Menin
T2 sequence: T1 sequence with M327I
Method: as §1

[3] = target: T3, StrepII-Avi-TEV-Menin T349M (recombinant mutant human Menin) (human, UniProt O00255 1-610)
T3 construct: The mutant plasmid was made from the wild-type StrepII-Avi-TEV Menin construct; also called T349M-mutant Menin; T349M Menin
T3 sequence: T1 sequence with T349M
Method: as §1

B1: N-terminal FITC-conjugated MLL1 4-43(C-A) peptide probe (peptide)
peptide: {FITC}-SARWRFPARPGTTGGGGGGGRRGLGGAPRQRVPALLLPPGY
modifications: not fully specified
notes: also called FITC-MLL14-43(C-A) peptide; MLL1 peptide
A Kd [1] of 0.76 nM, a Kd [2] of 0.91 nM and a Kd [3] of 2.99 nM were found for B1 in this work.

— patent publication US20260185163A1 (Dana-Farber, published 2026)
